Test results as given in publication PMC8159254.

Target: NfRedAm, reductive aminase from Neosartorya fumigata (Neosartorya fumigata)
Test: SEC-MALS

**Q.** Which stoichiometry N does the source give for “NfRedAm, reductive aminase from Neosartorya fumigata (enzyme)” here?
**A.** Its stoichiometry N is 2.
